Experimental findings from publication PMC4551927 (Nucleic Acids Research, 2015) are described below.

B1: Mycobacterium tuberculosis VapC30 toxin (natural protein)
chain: MMVIDTSALVAMLSDEPDAERFEAAVEADHIRLMSTASYLETALVIEARFGEPGGRELDLWLHRAAVDLVAVHADQADAARAAYRTYGKGRHRAGLNYGDCFSYGLAKISGQPLLFKGEDFQHTDIATVALP
B2: Mycobacterium tuberculosis VapB30 antitoxin (natural protein)
chain: MALSIKHPEADRLARALAARTGETLTEAVVTALRERLARETGRARVVPLRDELAAIRHRCAALPVVDNRSAEAILGYDERGLPA

The data set “crystal structure” concerns the molecule itself. Nature of the data set: crystal structure.
For data set [1], the target named is B1. Briefly: crystal structure.

In the case of B1, the binding result in the data set “crystal structure” is given as “binds”.

As to B2, the binding result (in data set [1]; in “crystal structure”) was “binds” throughout.
